Experimental data published in publication PMC5039622, “Characterization of aspartyl aminopeptidase from Toxoplasma gondii” (Scientific Reports, 2016).

T1: rTgAAP (TgAAP, aspartyl aminopeptidase) (Toxoplasma gondii, UniProt A0A7J6KF82)
T1 construct: gene TGRH88_002740; full-length CDS 1521 bp, ~56 kDa (55897 Da predicted in ToxoDB), N-terminal GST tag kept (~80 kDa), E. coli BL21, pCold III; mainly dodecamer, also trimer and monomer on native PAGE
T1 sequence (A0A7J6KF82 1-508): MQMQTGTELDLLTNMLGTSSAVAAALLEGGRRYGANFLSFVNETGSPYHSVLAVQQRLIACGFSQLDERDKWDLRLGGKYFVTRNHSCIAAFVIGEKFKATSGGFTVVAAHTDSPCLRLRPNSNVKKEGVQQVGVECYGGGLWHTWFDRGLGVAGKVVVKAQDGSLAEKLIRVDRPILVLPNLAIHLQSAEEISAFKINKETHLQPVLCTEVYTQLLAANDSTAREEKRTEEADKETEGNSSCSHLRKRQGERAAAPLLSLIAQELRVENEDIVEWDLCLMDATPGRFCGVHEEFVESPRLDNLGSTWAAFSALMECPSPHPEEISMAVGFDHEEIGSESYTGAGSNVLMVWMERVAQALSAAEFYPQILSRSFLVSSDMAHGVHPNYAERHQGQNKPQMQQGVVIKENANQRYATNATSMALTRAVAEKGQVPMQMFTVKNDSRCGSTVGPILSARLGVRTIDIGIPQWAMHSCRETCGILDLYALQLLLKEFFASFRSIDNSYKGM

B1: rTgAAP (TgAAP, aspartyl aminopeptidase) (Toxoplasma gondii) (protein)
chain: T1 sequence (A0A7J6KF82 1-508)
notes: full-length CDS 1521 bp, ~56 kDa (55897 Da predicted in ToxoDB), N-terminal GST tag kept (~80 kDa), E. coli BL21, pCold III; mainly dodecamer, also trimer and monomer on native PAGE

How the values were obtained:
[1] = target: T1, rTgAAP (TgAAP, aspartyl aminopeptidase); test: inhibition of H-Glu-MCA hydrolysis; format: biochemical; conditions: 1 h pre-incubation at 37 °C; substrate H-Glu-MCA
[2] = substrate: Cc1cc(=O)oc2cc(NC(=O)[C@@H](N)CO)ccc12; test: fluorogenic MCA release, initial rates; format: biochemical, Toxoplasma gondii; conditions: 37 °C, enzyme 0.3 μM, metal not stated for the kinetics
Text: (§1) fluorogenic MCA release, initial rates on rTgAAP (TgAAP, aspartyl aminopeptidase)

[3] = substrate: Cc1cc(=O)oc2cc(NC(=O)[C@@H](N)CC(N)=O)ccc12; test: fluorogenic MCA release, initial rates; format: biochemical, Toxoplasma gondii; conditions: 37 °C, enzyme 0.3 μM, metal not stated for the kinetics
Text: as §1

[4] = substrate: Cc1cc(=O)oc2cc(NC(=O)[C@@H](N)CC(=O)O)ccc12; test: fluorogenic MCA release, initial rates; format: biochemical, Toxoplasma gondii; conditions: 37 °C, enzyme 0.3 μM, metal not stated for the kinetics
Text: as §1

[5] = substrate: Cc1cc(=O)oc2cc(NC(=O)[C@@H]3CCCN3)ccc12; test: fluorogenic MCA release, initial rates; format: biochemical, Toxoplasma gondii; conditions: 37 °C, enzyme 0.3 μM, metal not stated for the kinetics, printed kcat/Km 0.28 disagrees tenfold with printed kcat and Km
Text: as §1

[6] = substrate: Cc1cc(=O)oc2cc(NC(=O)[C@@H](N)Cc3c[nH]cn3)ccc12; test: fluorogenic MCA release, initial rates; format: biochemical, Toxoplasma gondii; conditions: 37 °C, enzyme 0.3 μM, metal not stated for the kinetics
Text: as §1

[7] = substrate: Cc1cc(=O)oc2cc(NC(=O)[C@@H](N)CCC(=O)O)ccc12; test: fluorogenic MCA release, initial rates; format: biochemical, Toxoplasma gondii; conditions: 37 °C, enzyme 0.3 μM, metal not stated for the kinetics
Text: as §1

Molecule | % inhibition at 1 mM [1] [%] | Km [2] [µM] | kcat [2] [s⁻¹] | kcat/Km [2] [M⁻¹ s⁻¹] | Km [3] [µM] | kcat [3] [s⁻¹] | kcat/Km [3] [M⁻¹ s⁻¹] | Km [4] [µM] | kcat [4] [s⁻¹] | kcat/Km [4] [M⁻¹ s⁻¹] | Km [5] [µM] | Km [6] [µM] | kcat [6] [s⁻¹] | kcat/Km [6] [M⁻¹ s⁻¹] | Km [7] [µM] | kcat [7] [s⁻¹] | kcat/Km [7] [M⁻¹ s⁻¹]
Cl.Oc1ccc(CCNc2c3ccccc3nc3ccccc23)cc1O [CID 23724194] | > 50 | – | – | – | – | – | – | – | – | – | – | – | – | – | – | – | –
B1 | – | 92.87 ± 3.38 | 0.123 ± 0.0086 | 1330 | 24.32 ± 0.26 | 0.484 ± 0.0126 | 19900 | 12.84 ± 0.21 | 1.1 ± 0.0648 | 85700 | 98.55 ± 1.96 | 88.70 ± 2.53 | 0.208 ± 0.0043 | 2350 | 7.35 ± 0.73 | 1.4 ± 0.306 | 190000
